Data published in the Immune Epitope Database (IEDB).

Assays:
Assay in all cases: IEDB peptide-MHC binding, purified MHC/competitive/radioactivity; filed as Kd, often an IC50 or EC50 that approximates it; ≥ and ≤ were set here for values at or beyond the usual limits of such assays
HLA-A*02:02 = target: HLA-A*02:02
HLA-A*02:03 = target: HLA-A*02:03
HLA-A*02:06 = target: HLA-A*02:06
HLA-A*11:01 = target: HLA-A*11:01
HLA-A*03:01 = target: HLA-A*03:01
HLA-A*68:01 = target: HLA-A*68:01
HLA-A*33:01 = target: HLA-A*33:01
HLA-A*31:01 = target: HLA-A*31:01
[1] = source organism: Vaccinia virus WR
[2] = source organism: Dengue virus 2 Jamaica/1409/1983
[3] = source organism: SARS coronavirus Tor2
[4] = source organism: Mammarenavirus whitewaterense
[5] = source organism: Mammarenavirus brazilense
[6] = source organism: Mammarenavirus lassaense

Row | Sequence | Kd (HLA-A*02:02; [1]) [nM] | Kd (HLA-A*02:03; [1]) [nM] | Kd (HLA-A*02:06; [1]) [nM] | other results
1 | AITLVVISVI | 406 | 786 | 2000 | 
2 | ASAWTLYAV |  |  |  | Kd (HLA-A*02:06; [2]): 8.11 nM
3 | ATLNTLITL | 373 | 577 | 9.59 | 
4 | AVKFAEESYT | 1760 | 1470 | 2270 | 
5 | CLDAGINYV |  |  |  | Kd (HLA-A*02:02; [3]): 0.569 nM; Kd (HLA-A*02:03; [3]): 6.43 nM; Kd (HLA-A*02:06; [3]): 1.56 nM
6 | CVMYASALV |  |  |  | Kd (HLA-A*02:02; [3]): 4.48 nM; Kd (HLA-A*02:03; [3]): 2.94 nM; Kd (HLA-A*02:06; [3]): 7.36 nM
7 | DAIKSNNHLT | ≥ 27400 | 17900 | ≥ 69800 | 
8 | DLFMSHVKSV | 3380 | 41.7 | 19800 | 
9 | DLLLPSTDV | 15100 | 3900 | 1060 | 
10 | DLNAVTTNNL | 1830 | 1630 | 7520 | 
11 | DTSPTKRCRL | 12200 | ≥ 37100 | ≥ 44700 | 
12 | DVEKRILNT | 5820 | 6720 | ≥ 77100 | 
13 | DVFRPLFDFV | 1020 | 2570 | 232 | 
14 | DVGCLLTDTI | 10700 | 15600 | 9990 | 
15 | ELNGKNIEDV |  |  |  | Kd (HLA-A*02:06; source organism: Homo sapiens): ≥ 69800 nM
16 | EQGDIALAL | 701 | 11100 | 4770 | 
17 | EQYTCNKPYT | 14000 | 3010 | ≥ 45700 | 
18 | EVIERINLLV | 19700 | 3330 | 300 | 
19 | EVTPEYIKDL | 1520 | 2270 | 7670 | 
20 | FLLRGPFEAS |  |  |  | Kd (HLA-A*02:02; [4]): 27.1 nM; Kd (HLA-A*02:03; [4]): 83.5 nM; Kd (HLA-A*02:06; [4]): 70.3 nM
21 | FLTGTFVTA | 4.69 | 0.712 | 2.05 | 
22 | FTKDGKLDDT | 145 | 187 | 898 | 
23 | FVVTTDISEM |  |  |  | Kd (HLA-A*02:06; source organism: Dengue virus 3 Martinique/1243/1999): 297 nM
24 | GILIYDDNI | 11700 | 1700 | 13300 | 
25 | GVLPEETNI | 17300 | ≥ 20400 | 573 | 
26 | HVLLPFYET | 16400 | 18600 | 1740 | 

Row | Sequence | Kd (HLA-A*02:02; [1]) [nM] | Kd (HLA-A*02:03; [1]) [nM] | Kd (HLA-A*02:06; [1]) [nM] | other results
27 | HVLLPFYETL | 29.4 | 213 | 115 | 
28 | IALCKVTVPT | 1950 | 2220 | 652 | 
29 | IICEDAMYYA | 24 | 108 | 8.78 | 
30 | ILQMREIIT | 4100 | 1340 | 1230 | 
31 | ITDNGPMPYM | 828 | 1180 | 303 | 
32 | KIKQTGINNV | 237 | 3.12 | 2550 | 
33 | KTPLYYLSGT | ≥ 21900 | 3110 | 1420 | 
34 | LISLINSLV | 0.478 | 0.478 | 72.4 | 
35 | LLKCVSDSWL | 75.5 | 118 | 4730 | 
36 | LLNVQTLISL | 23.7 | 16.1 | 96.7 | 
37 | LLWFLTGTFV | 2.42 | 9.18 | 18 | 
38 | LMLHNPTSET | ≥ 39300 | 4480 | 11100 | 
39 | LMTLDDLAI | 51.7 | 75.8 | 288 | 
40 | LRYFIMAYV |  |  |  | Kd (HLA-A*02:02; [5]): 213 nM; Kd (HLA-A*02:03; [5]): 395 nM; Kd (HLA-A*02:06; [5]): ≥ 20100 nM
41 | LTPFEKEFT | 16800 | ≥ 20900 | ≥ 77100 | 
42 | LTSNCTRTT | ≥ 77800 | ≥ 29600 | ≥ 40400 | 
43 | LTSVDIETA | 4920 | 11500 | 311 | 
44 | LVMDKNHAI | 19 | 770 | 103 | 
45 | LVQYRILPMI | 12500 | 1200 | 712 | 
46 | MISTYPGNT | 5490 | 229 | ≥ 25700 | 
47 | RALIFILLTA |  |  |  | Kd (HLA-A*02:06; [2]): 140 nM
48 | RLTDTEYRAR |  |  |  | Kd (HLA-A*11:01; [1]): 794 nM; Kd (HLA-A*03:01; [1]): 667 nM; Kd (HLA-A*68:01; [1]): 822 nM; Kd (HLA-A*33:01; [1]): 469 nM; Kd (HLA-A*31:01; [1]): 1.33 nM
49 | RLYECLYRNR |  |  |  | Kd (HLA-A*11:01; [3]): 596 nM; Kd (HLA-A*03:01; [3]): 6.91 nM; Kd (HLA-A*68:01; [3]): 229 nM; Kd (HLA-A*33:01; [3]): 2460 nM; Kd (HLA-A*31:01; [3]): 2.08 nM
50 | SARNKLFKR |  |  |  | Kd (HLA-A*11:01; [1]): 5710 nM; Kd (HLA-A*03:01; [1]): ≥ 58700 nM; Kd (HLA-A*68:01; [1]): 441 nM; Kd (HLA-A*33:01; [1]): 69.6 nM; Kd (HLA-A*31:01; [1]): 1.25 nM
51 | SGSCLNNEK |  |  |  | Kd (HLA-A*11:01; [6]): 556 nM; Kd (HLA-A*03:01; [6]): ≥ 20300 nM; Kd (HLA-A*68:01; [6]): 876 nM; Kd (HLA-A*33:01; [6]): ≥ 59800 nM; Kd (HLA-A*31:01; [6]): ≥ 60900 nM
